Test results reported in patent US20240124586A1 (WUXI BIOLOGICS IRELAND, published 2024).

T1: Cynomolgus CD3 epsilon protein (W331-cynoPro1.ECD.His) (cynomolgus, UniProt Q95LI5 22-117)
T1 construct: extracellular domain; Bought protein; also called Acro #CDE-C5226
T1 sequence (looked up): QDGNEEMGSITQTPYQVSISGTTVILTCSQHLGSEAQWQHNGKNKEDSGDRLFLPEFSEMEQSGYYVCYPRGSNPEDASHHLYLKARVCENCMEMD

T2: human CD19 on CD19+ B cell lines (Ramos, Raji) (human, UniProt P15391 20-556)
T2 construct: whole, on cells; also called CD19+ Ramos cells; CD19+ Raji cells
T2 sequence (looked up): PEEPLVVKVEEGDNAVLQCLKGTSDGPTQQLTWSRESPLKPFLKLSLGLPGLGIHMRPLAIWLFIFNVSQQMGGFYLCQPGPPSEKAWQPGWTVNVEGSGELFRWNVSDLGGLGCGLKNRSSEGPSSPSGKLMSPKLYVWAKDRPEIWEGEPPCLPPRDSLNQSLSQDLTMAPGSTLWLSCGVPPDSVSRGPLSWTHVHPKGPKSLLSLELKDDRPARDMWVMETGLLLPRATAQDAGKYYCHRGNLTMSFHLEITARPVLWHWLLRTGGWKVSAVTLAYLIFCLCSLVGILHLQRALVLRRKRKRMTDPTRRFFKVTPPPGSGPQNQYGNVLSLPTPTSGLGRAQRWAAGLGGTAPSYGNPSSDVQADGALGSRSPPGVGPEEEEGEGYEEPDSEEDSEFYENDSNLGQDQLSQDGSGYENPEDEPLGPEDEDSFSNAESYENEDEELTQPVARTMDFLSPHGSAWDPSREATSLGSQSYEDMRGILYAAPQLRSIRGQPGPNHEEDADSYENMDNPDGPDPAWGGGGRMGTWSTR


Key:
[1] = target: T1, Cynomolgus CD3 epsilon protein …; assay: ELISA, cynomolgus CD3 epsilon protein coated
Procedure: The binding of the CD3×CD19 bispecific antibody to Cynomolgus CD3 were tested by protein binding ELISA. […] All wells were washed one time with 300 μL per well of PBS/0.5‰ Tween-20 (v/v). The wells were then blocked for one hour at room temperature with 200 μL per well of PBS/2% BSA (BOVOGEN, #BSAS) and washed three times with 300 μL per well of PBS/0.5‰ Tween-20 (v/v). For the primary antibody binding, CD3×CD19 bispecific antibody serially diluted in PBS/2% BSA were added to the relevant wells and incubated at room temperature for two hours. […] Plates were incubated at room temperature for one hour, followed by six washes as described above. […] The extent of bispecific antibody binding to Cynomolgus CD3 was determined by measuring the OD450 absorbance using the SpectraMax® M5e microplate reader. Wherever appropriate, binding EC50 values were obtained by the four-parameter non-linear regression analysis using GraphPad Prism5 software.

[2] = target: T2, human CD19 on CD19+ B cell lines …; assay: flow cytometry on Ramos cells
[3] = target: T2, human CD19 on CD19+ B cell lines …; assay: cell-based or functional assay
[4] = target: T3, human CD3 on CD3+ Jurkat cells (human, UniProt P07766 23-207; P09693 23-182; P04234 22-171); assay: flow cytometry on Jurkat cells
T3 construct: whole, on cells; also called CD3 positive Jurkat cells
T3 sequence (P07766 23-207, chain 1 of 3): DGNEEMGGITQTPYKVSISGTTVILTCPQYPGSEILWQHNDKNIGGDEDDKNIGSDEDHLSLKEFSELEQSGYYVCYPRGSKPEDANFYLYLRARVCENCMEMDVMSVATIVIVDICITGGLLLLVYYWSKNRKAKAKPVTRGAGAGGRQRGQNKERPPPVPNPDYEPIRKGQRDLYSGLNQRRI
T3 sequence (P09693 23-182, chain 2 of 3): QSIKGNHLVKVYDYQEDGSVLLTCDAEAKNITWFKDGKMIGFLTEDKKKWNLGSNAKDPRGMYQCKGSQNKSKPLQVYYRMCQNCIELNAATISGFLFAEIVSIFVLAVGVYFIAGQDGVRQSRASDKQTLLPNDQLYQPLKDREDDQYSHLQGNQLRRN
T3 sequence (P04234 22-171, chain 3 of 3): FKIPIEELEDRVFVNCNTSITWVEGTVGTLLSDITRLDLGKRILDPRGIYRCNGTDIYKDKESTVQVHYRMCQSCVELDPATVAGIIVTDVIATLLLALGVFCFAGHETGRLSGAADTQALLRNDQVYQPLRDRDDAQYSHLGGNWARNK

human C1Q = human C1Q (human, UniProt P02745 23-245; P02746 28-253; P02747 29-245); assay: ELISA, antibody coated on the plate, C1q titrated
human C1Q, sequence (P02745 23-245 limits assumed, chain 1 of 3): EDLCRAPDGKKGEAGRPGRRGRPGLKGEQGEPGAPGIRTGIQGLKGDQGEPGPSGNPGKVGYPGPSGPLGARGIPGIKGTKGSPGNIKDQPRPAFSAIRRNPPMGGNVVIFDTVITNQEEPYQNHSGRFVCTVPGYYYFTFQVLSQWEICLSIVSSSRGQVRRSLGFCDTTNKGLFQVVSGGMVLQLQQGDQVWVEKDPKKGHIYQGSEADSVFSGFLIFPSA
human C1Q, sequence (P02746 28-253 limits assumed, chain 2 of 3): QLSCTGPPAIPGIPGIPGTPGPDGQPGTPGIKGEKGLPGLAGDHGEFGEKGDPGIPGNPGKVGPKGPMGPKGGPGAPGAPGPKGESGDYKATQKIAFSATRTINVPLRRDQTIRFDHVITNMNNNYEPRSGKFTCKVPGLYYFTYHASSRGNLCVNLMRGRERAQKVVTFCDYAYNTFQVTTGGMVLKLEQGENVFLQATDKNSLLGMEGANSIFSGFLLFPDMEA
human C1Q, sequence (P02747 29-245 limits assumed, chain 3 of 3): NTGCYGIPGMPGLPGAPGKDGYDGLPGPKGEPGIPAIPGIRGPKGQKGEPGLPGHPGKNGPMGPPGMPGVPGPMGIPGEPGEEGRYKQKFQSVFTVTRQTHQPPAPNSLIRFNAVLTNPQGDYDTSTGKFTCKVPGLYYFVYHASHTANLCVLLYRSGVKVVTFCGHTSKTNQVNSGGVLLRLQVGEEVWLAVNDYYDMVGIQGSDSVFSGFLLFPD
Procedure: ELISA Plates (Nunc) were coated with antibody samples at 3 μg/mL overnight at 4° C. After blocking and washing, C1q was gradient diluted starting from 600 μg/mL and incubated at room temperature for 2 hr. The plates were then washed and subsequently incubated with sheep anti-human C1q Ab-HRP for 1 hr. After washing, TMB substrate was added and the interaction was stopped by 2 M HCl. The absorbance at 450 nm was read using a microplate reader (Molecular Device).
The binding activity of antibodies to C1Q was tested by ELISA.

[5] = target: T4, cynomolgus CTLA-4 on engineered 293F cells (W316-293F.cynoPro1.F1.Pool) (cynomolgus); assay: FACS binding to cynomolgus CTLA-4 engineered cells
T4 construct: whole, on cells; also called cynomolgus CTLA-4 engineered cells
Procedure: (§1) 4-fold titrated Abs with 1% BSA DPBS from 40 μg/ml to 0.00004 μg/ml were added to the cells. Plates were incubated at 4° C. for 1 hour. After wash, […] 1:150 diluted PE-labeled goat anti-human antibody (Jackson 109-115-098) was added to each well and the plates were incubated at 4° C. for 1 hour. The binding of the antibodies onto the cells was tested by flow cytometry and the mean fluorescence intensity (MFI) was analyzed by FlowJo.

[6] = target: T5, human PD-1 on engineered CHO-S cells (W305-CHO-S.hPro1.C6) (human, UniProt Q15116 25-288); assay: FACS binding to human PD-1 engineered cells
T5 construct: whole, on cells; also called human PD-1 engineered cells; PD-1+ cells
T5 sequence (Q15116 25-288, change not shown): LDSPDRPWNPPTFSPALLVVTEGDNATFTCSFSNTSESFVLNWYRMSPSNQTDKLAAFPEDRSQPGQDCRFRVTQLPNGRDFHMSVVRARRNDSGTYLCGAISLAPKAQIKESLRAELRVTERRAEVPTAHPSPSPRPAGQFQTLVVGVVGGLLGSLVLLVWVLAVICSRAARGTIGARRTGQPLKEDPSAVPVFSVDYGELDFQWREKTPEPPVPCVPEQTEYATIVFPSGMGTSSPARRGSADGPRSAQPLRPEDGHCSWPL
Procedure: as §1, with “Engineered human PD-1 expressing cells W305-CHO-S.hPro1.C6 were seeded at 1×10⁵ cells/well in U-bottom 96-well plates (COSTAR 3799). Antibodies” for “4-fold titrated Abs”, “with 3.16-fold titration in” for “with”, “200 nM” for “40 μg/ml”, “0.002 nM” for “0.00004 μg/ml”, “The plates” for “Plates”, “1:125” for “1:150”

hCTLA4.ECD.hFc = target: T6, hCTLA4.ECD.hFc (human); assay: dual-binding ELISA (hCTLA4.ECD.hFc coated, detected with hPD-1-ECD.Biotin), sample kept 0 d in human serum at 37 C
T6 construct: ECD fused to a human Fc; not biotinylated; also called Human CTLA-4: W316-hPro1.ECD.hFc (in house)
T6 sequence (P16410 36-161): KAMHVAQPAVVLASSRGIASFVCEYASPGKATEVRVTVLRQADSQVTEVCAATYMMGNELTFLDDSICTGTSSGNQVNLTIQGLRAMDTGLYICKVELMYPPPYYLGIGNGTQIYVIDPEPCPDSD
Procedure: The antibodies were incubated in freshly isolated human serum at 37° C. On indicated time points, an aliquot of serum treated sample was removed from the incubator and snap frozen in liquid nitrogen, and then stored at −80° C. until ready for a dual-binding ELISA test. The frozen samples were quickly thawed immediately prior to the stability test. Briefly, plates were pre-coated with 0.5 μg/mL of hCTLA4.ECD.hFc (in house) at 4° C. overnight. After 1-hour blocking, the testing antibodies were added to the plates at various concentrations. The plates were incubated at ambient temperature for 1 hour. Following the incubation, the plates were washed three times with 300 μL per well of PBS containing 0.5% (v/v) Tween 20. Then 0.1 μg/ml hPD-1-ECD.Biotin was added to plates and the mixture was incubated for 1 hour. After washing the plates three times, Streptavidin-HRP (Lifetechnologies, #SNN1004) (1:20000 diluted) was added and incubated on the plates for 1 hour at room temperature. After washing six times with 300 μL per well of PBS containing 0.5% (v/v) Tween 20, 100 μL tetramethylbenzidine (TMB) substrate is added for the detection per well. The reaction was stopped after approximately 5 minutes by addition of 100 μL per well of 2 M HCl. The absorbance of the wells was measured at 450 nm with a multiwall plate reader (SpectraMax® M5e). […]

| Binder | EC50 [1] [nM] | EC50 [2] [nM] | EC50 of T-cell directed killing of malignant B cells (PI-positive Raji cells) [3] [nM] | EC50 of T-cell engaged malignant B cell killing [3] [nM] | EC50 of cell lysis, CD8+ T cells and Raji cells, 4 hours [3] [nM] | EC50 [4] [nM] | binding result (human C1Q) | EC50 [5] [nM] | Top(MFI) [5] [MFI] | EC50 [6] [nM] | EC50 (hCTLA4.ECD.hFc) [nM] |
| --- | --- | --- | --- | --- | --- | --- | --- | --- | --- | --- | --- |
| W3438-T3U4.E17-1.uIgG4.SP, bispecific anti-CD3 x CD19 (bispecific antibody, also called E17-Design_2-QQQQ (IgG4); E17-IgG4; copies: 1 + 1 + 1 + 1) heavy 1: QVQLVQSGAEVKKPGSSVKVSCKASGFAFTDYYIHWVRQAPGQGLEWMGWISPGNVNTKYNENFKGRVTITADKSTSTAYMELSSLRSEDTAVYYCARDGYSLYYFDYWGQGTLVTVLEDLKNVFPPEVAVFEPSEAEISHTQKATLVCLATGFYPDHVELSWWVNGKEVHSGVCTDPQPLKEQPALQDSRYALSSRLRVSATFWQNPRNHFRCQVQFYGLSENDEWTQDRAKPVTQIVSAEAWGRYGPPCPPCPAPEFLGGPSVFLFPPKPKDTLMISRTPEVTCVVVDVSQEDPEVQFNWYVDGVEVHNAKTKPREEQFNSTYRVVSVLTVLHQDWLNGKEYKCKVSNKGLPSSIEKTISKAKGQPREPQVYTLPPCQEEMTKNQVSLWCLVKGFYPSDIAVEWESNGQPENNYKTTPPVLDSDGSFFLYSRLTVDKSRWQEGNVFSCSVMHEALHNHYTQKSLSLSLGK light 1: DIVMTQSPDSLAVSLGERATINCKSSQSLLNSRTRKNYLAWYQQKPGQPPKLLIYWASTRQSGVPDRFSGSGSGTDFTLTISSLQAEDVAVYYCTQSHTLRTFGGGTKVEIKPDIQNPDPAVYQLRDSKSSDKSVCLFTDFDSQTQVSQSKDSDVYITDKCVLDMRSMDFKSNSAVAWSQKSDFACANAFQNSIIPEDTFFPSPESS heavy 2: QMQLVQSGPEVKKPGTSVKVSCKASGYAFTSYNMYWVRQARGQRLEWIGYIDPYNGDTTYNQKFKGRVTITRDMSTSTAYMELSSLRSEDTAVYYCLTTAYAMDYWGQGTLVTVSSASTKGPSVFPLAPCSRSTSESTAALGCLVKDYFPEPVTVSWNSGALTSGVHTFPAVLQSSGLYSLSSVVTVPSSSLGTKTYTCNVDHKPSNTKVDKRVESKYGPPCPPCPAPEFLGGPSVFLFPPKPKDTLMISRTPEVTCVVVDVSQEDPEVQFNWYVDGVEVHNAKTKPREEQFNSTYRVVSVLTVLHQDWLNGKEYKCKVSNKGLPSSIEKTISKAKGQPREPQVCTLPPSQEEMTKNQVSLSCAVKGFYPSDIAVEWESNGQPENNYKTTPPVLDSDGSFFLVSRLTVDKSRWQEGNVFSCSVMHEALHNHYTQKSLSLSLGK light 2: DIQLTQSPSFLSASVGDRVTITCSASSTVNYMHWYQQKPGKAPKLLIYSTSNLASGVPSRFSGSGSGTEFTLTISSLQPEDFATYYCHQWSSYPYTFGQGTKLEIKRTVAAPSVFIFPPSDEQLKSGTASVVCLLNNFYPREAKVQWKVDNALQSGNSQESVTEQDSKDSTYSLSSTLTLSKADYEKHKVYACEVTHQGLSSPVTKSFNRGEC | 0.04 | 15.6 | 0.057 | 0.0177 | 15 | 47 | no binding (tested: about 1500 nM C1q) |  |  |  |  |
| W3248-U6T5.G25-1.uIgG4.SP, bispecific anti-PD-1 x CTLA-4 (bispecific antibody, IgG4 (S228P); also called WBP3248-U6T5.G25-1-uIgG4.SP; U6T5.G25.IgG4) heavy: not shown light 1: SYELTQPLSVSVALGQTARITCGGDNIGNKDVHWYQQKPGQAPVLVIYRDSNRPSGIPEGFSGSNSGNTATLTISRAQAGDEADYYCQVWDSIWVFGGGTKLTVLPDIQNPDPAVYQLRDSKSSDKSVCLFTDFDSQTQVSQSKDSDVYITDKCVLDMRSMDFKSNSAVAWSQKSDFACANAFQNSIIPEDTFFPSPESS light 2: EIVLTQSPDFQSVTPKEKVTITCSANSALSYMYWYQQKPDQSPKLWVHGTSNLASGVPSRFSGSGSGTDFTLTINSLEAEDAATYYCHHWSNTQWTFGGGTKVEIKRTVAAPSVFIFPPSDEQLKSGTASVVCLLNNFYPREAKVQWKVDNALQSGNSQESVTEQDSKDSTYSLSSTLTLSKADYEKHKVYACEVTHQGLSSPVTKSFNRGEC |  |  |  |  |  |  |  | 1.45 | 11200 | 1.18 | 0.092 |
| W3248-U6T1.G25R-1.uIgG4.SP, bispecific anti-PD-1 x CTLA-4 (bispecific antibody, IgG4 (S228P); also called U6T1.G25R.IgG4) heavy: EVQLLESGGGLVQPGGSLRLSCAASGFTFSSHAMSWVRQAPGKGLEWVSTITGGGGSIYYADSVKGRFTISRDNSKNTLYLQMNSLRAEDTAVYYCAKNRAGEGYFDYWGQGTLVTVSSASTKGPSVFPLAPCSRSTSESTAALGCLVKDYFPEPVTVSWNSGALTSGVHTFPAVLQSSGLYSLSSVVTVPSSSLGTKTYTCNVDHKPSNTKVDKRVGGGGSGGGGSQVQLVESGGGVVQPGRSLRLSCAASGFTFSSYTMHWVRQAPGKGLEWVTFISYDGNNKYYADSVKGRFTISRDNSKNTLYLQMNSLRAEDTAIYYCARTGWLGPFDYWGQGTLVTVLEDLKNVFPPEVAVFEPSEAEISHTQKATLVCLATGFYPDHVELSWWVNGKEVHSGVCTDPQPLKEQPALQDSRYALSSRLRVSATFWQNPRNHFRCQVQFYGLSENDEWTQDRAKPVTQIVSAEAWGRYGPPCPPCPAPEFLGGPSVFLFPPKPKDTLMISRTPEVTCVVVDVSQEDPEVQFNWYVDGVEVHNAKTKPREEQFNSTYRVVSVLTVLHQDWLNGKEYKCKVSNKGLPSSIEKTISKAKGQPREPQVYTLPPSQEEMTKNQVSLTCLVKGFYPSDIAVEWESNGQPENNYKTTPPVLDSDGSFFLYSRLTVDKSRWQEGNVFSCSVMHEALHNHYTQKSLSLSLG light 1: SYELTQPLSVSVALGQTARITCGGDNIGNKDVHWYQQKPGQAPVLVIYRDSNRPSGIPEGFSGSNSGNTATLTISRAQAGDEADYYCQVWDSIWVFGGGTKLTVLGQPKAAPSVTLFPPSSEELQANKATLVCLISDFYPGAVTVAWKADSSPVKAGVETTTPSKQSNNKYAASSYLSLTPEQWKSHKSYSCQVTHEGSTVEKTVAPTECS light 2: not shown |  |  |  |  |  |  |  | 5.87 | 6650 | 0.948 | 0.14 |
